# Laboratory results from the RNAGym collection of RNA variant scans (doi:10.1073/pnas.2313332121).
# B1: TPR t1 (parent)
# chain: GACCAAUCUGCCCUCAGAGCUCGAGAACAUCUUCGGAUGCAGAGGAGGCAGGCUUCGGUGGCGCGAUAGCGCCAACGUCCUCAACCUCCAAUGCAUCCCACCACAUGAUGAUGCCUGAAGAGCCUUGGUUUUUUG
# Variants of: B1
# Assay: polymerase ribozyme fitness, log enrichment relative to wild type (log ratio); higher = more active; in vitro selection for triplet polymerase activity
# How it was run: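 A heterodimeric triplet polymerase ribozyme had each of its subunits mutagenized by PCR into a library, which was transcribed. One round of in vitro selection, done in triplicate, annealed each library with a biotinylated primer, its partner subunit and triplets, then incubated it frozen at −7 °C before gel excision of extended constructs, streptavidin-bead capture and RT-PCR. Fitness is the logarithm of genotype enrichment relative to wild-type enrichment, based on Illumina sequencing of inputs and outputs and inverse-variance-weighted replicate averages. A base-2 logarithm is used, and genotypes were kept only with ≥10 input reads and ≥1 read per output.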
row,Variant,polymerase ribozyme fitness (log ratio)
1,U30C G48U C73A C82A,-3.73
2,U33G A111U A121G U125A,-6.73
3,C34A C80U,-4.3
4,U32G C62U A105U U112G,-6.91
5,G35A A41C U54C C64A A84G C101U C123U,-7.59
6,C34U C124A,-2.31
7,C34U C124U,-2.06
8,C31U C62U,-5.22
9,G35A C72G,-2.69
10,G35A C72U,-4.58
11,C34A G61U A111G,-2.85
12,U32A C40G C56A A84U,-6.15
13,A29G G61A C89A,-2.41
14,C34A C53U C114A U129C,-5.56
15,G35A C88G,-4.5
16,C34U G44U,-4.41
17,U32C G52A U78C C101A,-1.13
18,C34A C64G,-6.42
19,C34A G35U G48C,-3.95
20,A29U C56G C85A,-4.99
21,A29U U30G G57U G63C C72U G120A,-7.09
22,C34A G93A C101U,-3.81
23,C34U G120A A121C,-4.71
24,U32C G113A U126G U133C,-4.07

row,Variant,polymerase ribozyme fitness (log ratio)
1,C31G C85U C123U,-5.56
2,A29G G42C G45C C49A U106A,-4.8
3,A29G G71A G120U U132A,-2.06
4,U32A C73A C97U,-6.06
5,C34U C53U G61U G120A U132A,-3.26
6,A29U C62U,-1.3
7,U33G G63C C124A,-4.77
8,A29U C72U,-2.19
9,C34A G44A G48A U59A G61U C72U A121C C123G,-6
10,U33G C70G G113U,-6.56
11,C31A C56U,-4.45
12,U32C G48C,-1.44
13,A29U U96C,-1.87
14,U32A G47U C72U A83U,-5.74
15,A29G G63U G120C,-1.96
16,C31G G120C,-5.91
17,C31G G120A,-5.69
18,A29G U32C A50U,-1.45
19,A29U U78C,-1.79
20,C34A G113U,-5.39
21,U30G C49G G113C,-5.95
22,A29U A83G C86U,-2.72
23,C31U C56A C73G U106A C124A,0.239
24,C34A G39U C56G,-3.08

row,Variant,polymerase ribozyme fitness (log ratio)
1,C34U U54A,-4.44
2,C31G C53A G60A C94U U106A,-5.77
3,U32C C64U,0.123
4,U32C C53A C101A G120A,-0.18
5,U32C C73A C85G,-3.02
6,U32G U33C A43U A91U C124U,-5.75
7,U32C G69C G128C,-4.73
8,U33G U87A,-6.14
9,C34A C124A,-1.1
10,U32C C49U A95C U133A,-1.67
11,A29U A43G G61U G113A C123A U126A U134C,-3.47
12,C34U U59A,-5.75
13,C34A C101U,-2.53
14,G35A C53U G57U G69A A83U C115U,-6.36
15,U32C U116C,-1.17
16,C34U A95C,-5
17,C34U U116C,-5.7
18,U30C G42U G60A,-5.14
19,A29U G58A C115U,-2.3
20,C34U C53U U109G A119U A121C,-6.04
21,U32C C62A C82G G120C,-2.66
22,U33A G63A,-6.46
23,C31G A50G G60A C79A C124A,-7.23
24,U32C C62U C73U C85U C98U,-4.16

row,Variant,polymerase ribozyme fitness (log ratio)
1,G35A C62U,-4.22
2,G35A C62A,-5.05
3,U32G C53A C64U U109G,-7.34
4,A29U A46G U125A,-2.44
5,C31G C80A A105G G113A,-4.57
6,U32C A84U,-0.174
7,C34U A37C G60C C124A,-3.79
8,U32C A50G C79U C88U C114A G122A,-2.69
9,U33C U131A,-4.45
10,A29U C72U C98U A111C,-3.77
11,C31G U33A C64A G120C,-6.19
12,U32C C49A,-0.089
13,C34A A46U,-3.37
14,U33G U96A G110C U116G,-6.31
15,U33G C56A C88U,-4.09
16,U33A C64U U87A,-4.27
17,A29U C124U,-0.47
18,C34A C72U A100U,-4.44
19,C31U A43C,-6.22
20,U32A G44U U55A,-5.23
21,C31A C40U A50U G60A C101A U106A C115U A119G,-6.82
22,C34G C115G,-7.42
23,A29G G61A G93A C102G G117C,-7.25
24,C34A G48A C73U C101A,-4.83

row,Variant,polymerase ribozyme fitness (log ratio)
1,C34A A46U A68U G71C C124G,-7.38
2,A29U A43G U54C G63A G117C,-7.13
3,C31G G51U C97A C124U,-6.07
4,A29U A46G C88U C97G,-4.71
5,C34A U55C G60C U129G,-4.03
6,A29U C72U C104U,-1.81
7,U32G C56A C97A U109A,-6.23
8,C34A A83G A100U,-5.18
9,C31A C98U,-7.02
10,U30C C40U U55G,-4.05
11,A29U A75U A83G U112G U133C,-2.19
12,A29U A43U U78C U112A,-2.84
13,A29U C89U A119U,-3.93
14,U33G G60U C85G,-7.61
15,U33G C82U A83C,-6.87
16,C34A G128C,-4.73
17,A29U G35A C56U C72U U96A C98G C115G,-7.16
18,A29U C94A A111U,-0.272
19,A29G G60C U131A,-1.85
20,C34U G69U,-0.765
21,G35A C64A C114G U125G,-7.35
22,U32C C79U U106C,-0.788
23,C31A C115U,-7.47
24,C34G C79A A91C C97U C99U A100C C101U G113C U130A,-6.71

row,Variant,polymerase ribozyme fitness (log ratio)
1,C34U G45C C124G,-3.01
2,C31A G77C U112C,-4.36
3,C31A C72A C104G,-6.29
4,C31U C40U G45A,-6.8
5,A29G G120U U132A,-1.63
6,U32G A37G G113C,-5.08
7,C34A C94U A121G U125A U129A,-3
8,U30G C102G U112G,-7.15
9,C34G C64U,-6.18
10,A29U A50C C98U,-3.99
11,U30C G63A,-2.6
12,C34G G36U C72U U96C G127C U130G,-6.19
13,U32C C73U C85U C98U,-4.19
14,U30C C97U,-3.64
15,U32C C56A C80U,-1.66
16,C34U C101U U112A,-6.92
17,U33A C82A,-5.5
18,U32C C80U A83U C123G U130G,-1.77
19,C34G U55C G58A C82A C85U C88A C123U U131G,-6.74
20,C34G C72U U109A A119U C123U,-8.4
21,C34A C70U C79U,-4.29
22,C34A G120A,-2.29
23,U30C G48C C64U U81A U87A C124A,-4.9
24,C34G U125A,-5.11

row,Variant,polymerase ribozyme fitness (log ratio)
1,U32A G42A U54C U116C G128A,-6.04
2,C34A A41G,-3.94
3,U33C G39U A111C A121C,-5.95
4,C34A G36C A46G G93U A119G,-3.14
5,A29G G71U G110A,-2.82
6,U32G A103G C104A C123A,-6.74
7,U32C A90G C97A U130G,-5.05
8,U32C A43U C123A,-1.31
9,C31U G69U U78C A118G,-3.16
10,A29U G48A U92C C101U C114A,-5.72
11,U33C A46G C64G C86A C115G,-5.34
12,U30C C88U,-2.37
13,U32A G57U,-4.02
14,C34A G57C,-2.62
15,A29G G44U,-2.04
16,A29U C49G C101G C124G,-3.93
17,U33A U59A U112C G122C,-4.47
18,C34G C72A U106G A119U,-7.42
19,A29U C40A G52C G110U,-3.01
20,C34A C123A U132C,-2.13
21,U32C G48U G69A,-3.8
22,U32C G60U A66G C89G,-6.79
23,C34A U59A C114A,-5.37
